Among the data in publication PMC8295636 are fold increase of reporter expression over negative controls values, retold here.

The assay addresses p53. Briefly: two-hybrid.

The substance SV40T (natural protein) displayed a fold increase of reporter expression over negative controls of over 130 times.
